Data reported in the DeepSol protein solubility set.

Test: soluble on expression in E. coli; label from the status in PepcDB or PDB records

Q: Which “soluble on expression in E. coli” value does the source give for “AHHHHHHGSKLIEMLKEITQVPGISGYEERVREKIIEWIKDYADYKVDEIGNLIVELGEGEVKAVFMAHMDEIGLLITGITQDGKLRFRKVGGIDDRLLYGRHVDVITENGKLDGVIGALPPHLNVKGVKDVVPWYQLTIDIGAESKEEALSLGVKPLDYAVFKKHFSVLNNKIVSTRSLDDRFGVVALVQAIRNLVDHELSGKFIFAFTVQEEIGLKGAKFLAEKYSPEYAFAIDSFACCSELTGDVRLGGGAVIRAVDNSAIYSRDLARKVWEIAEKNNIPIQIGVTGGGTDASVFQHKSKVLALSVPMKYLHSEVEMLNVKDLEALIALIEAITFEI” here?
A: soluble

Q: Which “soluble on expression in E. coli” value does the source give for “MKPFLSACLIVKNEEEMLGKCLESLRRVIEEIIVVDTGSTDSTKEIARQFTDKVYDFEWMNDFSEARNFAASKANGEWIIAIDADECVDPDNFKEAIKEIKFHQNKFNMYLVEITSFSGALGENTTVNQMPRIYVNDGTICYKRAIHEQLEAVEGGLRVSLSSLKVYHYGYLSNVVVKQDKKS” here?
A: soluble

Q: Which “soluble on expression in E. coli” value does the source give for “MPSASASRKSQEKPREIMDAAEDYAKERYGISSMIQSHEKPDRVLVRVRDLTIQKADEVVWVRARVHTSRAKGKQCFLVLRQQQFNVQALVAVGDHASKQMVKFAANINKESIVDVEGVVRKVNQKIGSCTQQDVELHVQKIYVISLAEPRLPLQLDDAVRPEAEGEEEGRATVNQDTRLDNRVIDLRTSTSQAVFRLQSGICHLFRETLINKGFVEIQTPKIISAASEGGANVFTVSYFKNNAYLAQSPQLYKQMCICADFEKVFSIGPVFRAEDSNTHRHLTEFVGLDIEMAFNYHYHEVMEEIADTMVQIFKGLQERFQTEIQTVNKQFPCEPFKFLEPTLRLEYCEALAMLREAGVEMGDEDDLSTPNEKLLGHLVKEKYDTDFYILDKYPLAVRPFYTMPDPRNPKQSNSYDMFMRGEEILSGAQRIHDPQLLTERALHHGIDLEKIKAYIDSFRFGAPPHAGGGIGLERVTMLFLGLHNVRQTSMFPRDPKRLTP” here?
A: soluble

Q: For “MAAEIINGEKVIRKPNALYSDYPRKGGAASTATHYCPGCGHGVLHKLIAEAIDDLGIQDRTVMISPVGCAVFAYYYFDTGNIQVAHGRAPAVGTGVSRAEENAVVISYQGDGDLASIGLNETLQAANRGEKIAVFFVNNTVYGMTGGQMAPTTLIGEKTTTTPEGRDPRFAGYPLHMCELLDNLKAPVFIERVSVSDISHIRKARKAIRKALEVQRDGKGYAFVEVLAACPTNLRMDAEQAVSFINEEMEKEFPLRNFRDDSESTEPLYRGVSDFTTESLEKLYGIEADAGEKPVRADFAPIQTKIAGFGGQGVLSMGIVLAQAGVKANLNASWFPSYGPEQRGGTSNCSVVISGQPIGSPTVYTPDILIAMNRPSLERFEGAVRKGGFILYDSTIGEAETPEGVKAVSVPATEKAKEAGDERAANSFMLGVLLGLNATGLEEEAFKGALAENFAGKPRVIAFNQQMLEAGAEWARENVKI”, which “soluble on expression in E. coli” value is on record?
A: not soluble

Q: For “MELLCHEVDPVRRAVRDRNLLRDDRVLQNLLTIEERYLPQCSYFKCVQKDIQPYMRRMVATWMLEVCEEQKCEEEVFPLAMNYLDRFLAGVPTPKSHLQLLGAVCMFLASKLKETSPLTAEKLCIYTDNSIKPQELLEWELVVLGKLKWNLAAVTPHDFIEHILRKLPQQREKLSLIRKHAQTFIALCATDFKFAMYPPSMIATGSVGAAICGLQQDEEVSSLTCDALTELLAKITNTDVDCLKACQEQIEAVLLNSLQQYRQDQRDGSKSEDELDQASTPTDVRDIDL”, which “soluble on expression in E. coli” value is on record?
A: not soluble

Q: For “RPARQVRRLEFNQAMDDFKTMFPNMDYDIIECVLRANSGAVDATIDQLLQMNLE”, which “soluble on expression in E. coli” value is on record?
A: soluble

Q: Which “soluble on expression in E. coli” value does the source give for “MDAARFPADARVRVLARRFPPYHRDSPCLAILDRFLHDPTLSAAAVVDDAMRPVGLIDRYSLVEQFLHPYSRDLYHKHSIAAFMDPEPVIVEADSSIDDLSRIIIDAGMRHMVSGFIVTEDGLYLGIGSGHDLFEEVANRKQNHLYHLAHYDPLTSLPNRLLLNDRLKRACLRGQRGGYRIALLFIDLDRFKLVNDTLGHAAGDQLLQGVAGRFAACVRKVDTVARLGGDEFTVLLEPVQGPDEALAVAAKLAQSLERPFLIQNHEITTSASIGVVLFPEHDATVEGLMRKADAAMYCAKREGRNRFALFTEEMNSTVVERVTLESYLNAALEKGEFCCHFQPQMATADDRIVGVEALLRWTNPVLGRVPPLKFIPVAEDTGLILPLGLWALETACAQQVRWLSQGLPPLRMAVNISPLQFRNREFCDQVRAIVQRTGIRAEHLELELTESAVMADAESSVGILRELRDSGIRLAIDDFGTGYSSLSYLRKFPLDRLKIDRSFVSGIDRIPANELIVKAIVALGGSLGLDVIAEGVETPEELECIERCGCSEYQGFRLSEPLTAEDFAHWFEDSGYVLEHHHHHH” here?
A: not soluble
